Assay results reported in publication PMC11410670, “Growth of complete ammonia oxidizers on guanidine” (Nature, 2024).

B1: N. inopinata guanidinase (Candidatus Nitrospira inopinata) (protein)
chain: MAKKRTYQGKVPLHDNYGPEAKYAVEAEALLPTTKFEEEIARGLELGLPGADSIKDRRIPTFSRGELPHFAGINTFIKAPYVEDVRKCGQYDVAILGAPFDGGTTYRAGTRFGPQGIRKISALYGTYSFELGVDLRESVSICDVGDIFTIPGNIEKTFDQVSKGVGHVFASGAFPVVLGGDHSLGFATVRGVAQHLNGKKLGILHFDRHVDTQDTDLDERMHTTPWFHATNIPNVPAKNLVQIGIGGWQAPRPGVKAGRERQTTIMTVTDCVEMGIENAAKQALEVAFDGVDAVWLSFDVDCLDAAFVPGTGWPEPGGFLPREVLKFLQIIADTKPLAGMEIVECAPPYDAAEITSLMATRVICDVLACQVRSGHLGNRKKR
notes: full-length, N-terminal His6-MBP tag (pCoofy4) cleaved with HRV-3C; E. coli; homohexamer 240 kDa; Ni/Mn; N-terminus from primer MAKKRTY; residues T105, H182, D207, H209, D211, H222, D299, D301, W313, E344

Key:
[1] = biological target: Nitrospira inopinata guanidinase (Nitrospira inopinata); test: SEC-MALS; Superdex 200 Increase 10/300 GL, 20 °C, 20 mM HEPES, 150 mM NaCl, pH 7.4; 80 µl injected at 1 mg/ml; hexamer in solution
[2] = substrate: N=C(N)N; test: urea production, thiosemicarbazide-diacetylmonoxime colorimetry, Michaelis-Menten fit; assay type: biochemical, Candidatus Nitrospira inopinata; conditions: pH 7.5, 37 °C, 20 mM Tris-HCl, 50 mM NaCl, enzyme expressed with 1 mM NiSO4 and assayed with 1 mM Ni2+

Row | Molecule | stoichiometry N [1] | Km [2] [mM]
1 | Nitrospira inopinata guanidinase (enzyme) | 6 | –
2 | B1 | – | 13.6 ± 0.76
